Read-outs that look alike come from different tables or passages of the source.
Experiments:
[1] = molecular target: T1, HCV ORFs (Gal4-DB fusions) (Hepatitis C virus genotype 1b, UniProt Q9WMX2); format: binding, HCV genotype 1b, isolate con1; details: human protein as prey
T1 construct: expressed in transfected cells; host or cells: Saccharomyces cerevisiae MAV203 (IMAP1) / AH109 (IMAP2)

[2] = system: HCV ORFs (Gal4-DB fusions); format: binding, HCV genotype 1b, isolate con1; details: human protein listed by gene symbol; the value names the HCV protein it interacts with
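Further: yeast two-hybrid screens using HCV genotype 1b proteins fused to Gal4-DB as baits against prey cDNA libraries from human spleen and foetal brain, IMAP1 via transformation and IMAP2 via mating.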

B1: BIN1 (protein, UniProt O00499 2-593, looked up)
Myc box-dependent-interacting …: AEMGSKGVTAGKIASNVQKKLTRAQEKVLQKLGKADETKDEQFEQCVQNFNKQLTEGTRLQKDLRTYLASVKAMHEASKKLNECLQEVYEPDWPGRDEANKIAENNDLLWMDYHQKLVDQALLTMDTYLGQFPDIKSRIAKRGRKLVDYDSARHHYESLQTAKKKDEAKIAKPVSLLEKAAPQWCQGKLQAHLVAQTNLLRNQAEEELIKAQKVFEEMNVDLQEELPSLWNSRVGFYVNTFQSIAGLEENFHKEMSKLNQNLNDVLVGLEKQHGSNTFTVKAQPSDNAPAKGNKSPSPPDGSPAATPEIRVNHEPEPAGGATPGATLPKSPSQLRKGPPVPPPPKHTPSKEVKQEQILSLFEDTFVPEISVTTPSQFEAPGPFSEQASLLDLDFDPLPPVTSPVKAPTPSGQSIPWDLWEPTESPAGSLPSGEPSAAEGTFAVSWPSQTAEPGPAQPAEASEVAGGTQPAAGAQEPGETAASEAASSSLPAVVVETFPATVNGTVEGGSGAGRLDLPPGFMFKVQAQHDYTATDTDELQLKAGDVVLVIPFQNPEEQDEGWLMGVKESDWNQHKELEKCRGVFPENFTERVP
[1]; HCV protein NS5A as bait
  IMAP Y2H IMAP1 (number of IST): 16
  IMAP Y2H IMAP2 (number of IST): 14

B2: NAPL1L2 (protein, UniProt Q9ULW6 1-460, looked up)
Nucleosome assembly protein …: MAESENRKELSESSQEEAGNQIMVEGLGEHLERGEDAAAGLGDDGKCGEEAAAGLGEEGENGEDTAAGSGEDGKKGGDTDEDSEADRPKGLIGYVLDTDFVESLPVKVKYRVLALKKLQTRAANLESKFLREFHDIERKFAEMYQPLLEKRRQIINAIYEPTEEECEYKSDSEDCDDEEMCHEEMYGNEEGMVHEYVDEDDGYEDYYYDYAVEEEEEEEEEDDIEATGEENKEEEDPKGIPDFWLTVLKNVDTLTPLIKKYDEPILKLLTDIKVKLSDPGEPLSFTLEFHFKPNEYFKNELLTKTYVLKSKLAYYDPHPYRGTAIEYSTGCEIDWNEGKNVTLKTIKKKQKHRIWGTIRTVTEDFPKDSFFNFFSPHGITSNGRDGNDDFLLGHNLRTYIIPRSVLFFSGDALESQQEGVVREVNDAIYDKIIYDNWMAAIEEVKACCKNLEALVEDIDR
[1]; HCV protein NS3 as bait
  IMAP Y2H IMAP2 (number of IST): 1

B3: DDX3X (protein, UniProt O00571 2-662, looked up)
ATP-dependent RNA helicase …: SHVAVENALGLDQQFAGLDLNSSDNQSGGSTASKGRYIPPHLRNREATKGFYDKDSSGWSSSKDKDAYSSFGSRSDSRGKSSFFSDRGSGSRGRFDDRGRSDYDGIGSRGDRSGFGKFERGGNSRWCDKSDEDDWSKPLPPSERLEQELFSGGNTGINFEKYDDIPVEATGNNCPPHIESFSDVEMGEIIMGNIELTRYTRPTPVQKHAIPIIKEKRDLMACAQTGSGKTAAFLLPILSQIYSDGPGEALRAMKENGRYGRRKQYPISLVLAPTRELAVQIYEEARKFSYRSRVRPCVVYGGADIGQQIRDLERGCHLLVATPGRLVDMMERGKIGLDFCKYLVLDEADRMLDMGFEPQIRRIVEQDTMPPKGVRHTMMFSATFPKEIQMLARDFLDEYIFLAVGRVGSTSENITQKVVWVEESDKRSFLLDLLNATGKDSLTLVFVETKKGADSLEDFLYHEGYACTSIHGDRSQRDREEALHQFRSGKSPILVATAVAARGLDISNVKHVINFDLPSDIEEYVHRIGRTGRVGNLGLATSFFNERNINITKDLLDLLVEAKQEVPSWLENMAYEHHYKGSSRGRSKSSRFSGGFGARDYRQSSGASSSSFSSSRASSSRSGGGGHGSSRGFGGGGYGGFYNSDGYGGNYNSQGVDWWGN
[1]; HCV protein CORE as bait
  IMAP Y2H IMAP2 (number of IST): 1

B4: UBASH3A (protein, UniProt P57075 1-661, looked up)
Ubiquitin-associated and SH3 …: MAAGETQLYAKVSNKLKSRSSPSLLEPLLAMGFPVHTALKALAATGRKTAEEALAWLHDHCNDPSLDDPIPQEYALFLCPTGPLLEKLQEFWRESKRQCAKNRAHEVFPHVTLCDFFTCEDQKVECLYEALKRAGDRLLGSFPTAVPLALHSSISYLGFFVSGSPADVIREFAMTFATEASLLAGTSVSRFWIFSQVPGHGPNLRLSNLTRASFVSHYILQKYCSVKPCTKQLHLTLAHKFYPHHQRTLEQLARAIPLGHSCQWTAALYSRDMRFVHYQTLRALFQYKPQNVDELTLSPGDYIFVDPTQQDEASEGWVIGISQRTGCRGFLPENYTDRASESDTWVKHRMYTFSLATDLNSRKDGEASSRCSGEFLPQTARSLSSLQALQATVARKSVLVVRHGERVDQIFGKAWLQQCSTPDGKYYRPDLNFPCSLPRRSRGIKDFENDPPLSSCGIFQSRIAGDALLDSGIRISSVFASPALRCVQTAKLILEELKLEKKIKIRVEPGIFEWTKWEAGKTTPTLMSLEELKEANFNIDTDYRPAFPLSALMPAESYQEYMDRCTASMVQIVNTCPQDTGVILIVSHGSTLDSCTRPLLGLPPRECGDFAQLVRKIPSLGMCFCEENKEEGKWELVNPPVKTLTHGANAAFNWRNWISGN
[1]; HCV protein NS5A as bait
  IMAP Y2H IMAP2 (number of IST): 1

B5: DLAT (protein, UniProt P10515 87-647, looked up)
Dihydrolipoyllysine-residue …: SLPPHQKVPLPSLSPTMQAGTIARWEKKEGDKINEGDLIAEVETDKATVGFESLEECYMAKILVAEGTRDVPIGAIICITVGKPEDIEAFKNYTLDSSAAPTPQAAPAPTPAATASPPTPSAQAPGSSYPPHMQVLLPALSPTMTMGTVQRWEKKVGEKLSEGDLLAEIETDKATIGFEVQEEGYLAKILVPEGTRDVPLGTPLCIIVEKEADISAFADYRPTEVTDLKPQVPPPTPPPVAAVPPTPQPLAPTPSAPCPATPAGPKGRVFVSPLAKKLAVEKGIDLTQVKGTGPDGRITKKDIDSFVPSKVAPAPAAVVPPTGPGMAPVPTGVFTDIPISNIRRVIAQRLMQSKQTIPHYYLSIDVNMGEVLLVRKELNKILEGRSKISVNDFIIKASALACLKVPEANSSWMDTVIRQNHVVDVSVAVSTPAGLITPIVFNAHIKGVETIANDVVSLATKAREGKLQPHEFQGGTFTISNLGMFGIKNFSAIINPPQACILAIGASEDKLVPADNEKGFDVASMMSVTLSCDHRVVDGAVGAQWLAEFRKYLEKPITMLL
[2]
  Interaction with viral protein: NS3
[1]; HCV protein NS3 as bait
  IMAP Y2H IMAP2 (number of IST): 8

B6: EEF1A1 (protein, UniProt P68104 2-462, looked up)
Elongation factor 1-alpha 1: GKEKTHINIVVIGHVDSGKSTTTGHLIYKCGGIDKRTIEKFEKEAAEMGKGSFKYAWVLDKLKAERERGITIDISLWKFETSKYYVTIIDAPGHRDFIKNMITGTSQADCAVLIVAAGVGEFEAGISKNGQTREHALLAYTLGVKQLIVGVNKMDSTEPPYSQKRYEEIVKEVSTYIKKIGYNPDTVAFVPISGWNGDNMLEPSANMPWFKGWKVTRKDGNASGTTLLEALDCILPPTRPTDKPLRLPLQDVYKIGGIGTVPVGRVETGVLKPGMVVTFAPVNVTTEVKSVEMHHEALSEALPGDNVGFNVKNVSVKDVRRGNVAGDSKNDPPMEAAGFTAQVIILNHPGQISAGYAPVLDCHTAHIACKFAELKEKIDRRSGKKLEDGPKFLKSGDAAIVDMVPGKPMCVESFSDYPPLGRFAVRDMRQTVAVGVIKAVDKKAAGAGKVTKSAQKAQKAK
[2]
  Interaction with viral protein: NS3
[1]; HCV protein NS3 as bait
  IMAP Y2H IMAP2 (number of IST): 1

B7: EGFL7 (protein, UniProt Q9UHF1 24-273, looked up)
Epidermal growth factor-like …: YRPGRRVCAVRAHGDPVSESFVQRVYQPFLTTCDGHRACSTYRTIYRTAYRRSPGLAPARPRYACCPGWKRTSGLPGACGAAICQPPCRNGGSCVQPGRCRCPAGWRGDTCQSDVDECSARRGGCPQRCVNTAGSYWCQCWEGHSLSADGTLCVPKGGPPRVAPNPTGVDSAMKEEVQRLQSRVDLLEEKLQLVLAPLHSLASQALEHGLPDPGSLLVHSFQQLGRIDSLSEQISFLEEQLGSCSCKKDS
[2]
  Interaction with viral protein: CORE
[1]; HCV protein CORE as bait
  IMAP Y2H IMAP2 (number of IST): 1

B8: DDX3Y (protein, UniProt O15523 2-660, looked up)
ATP-dependent RNA helicase …: SHVVVKNDPELDQQLANLDLNSEKQSGGASTASKGRYIPPHLRNREASKGFHDKDSSGWSCSKDKDAYSSFGSRDSRGKPGYFSERGSGSRGRFDDRGRSDYDGIGNRERPGFGRFERSGHSRWCDKSVEDDWSKPLPPSERLEQELFSGGNTGINFEKYDDIPVEATGSNCPPHIENFSDIDMGEIIMGNIELTRYTRPTPVQKHAIPIIKGKRDLMACAQTGSGKTAAFLLPILSQIYTDGPGEALKAVKENGRYGRRKQYPISLVLAPTRELAVQIYEEARKFSYRSRVRPCVVYGGADIGQQIRDLERGCHLLVATPGRLVDMMERGKIGLDFCKYLVLDEADRMLDMGFEPQIRRIVEQDTMPPKGVRHTMMFSATFPKEIQMLARDFLDEYIFLAVGRVGSTSENITQKVVWVEDLDKRSFLLDILGATGSDSLTLVFVETKKGADSLEDFLYHEGYACTSIHGDRSQRDREEALHQFRSGKSPILVATAVAARGLDISNVRHVINFDLPSDIEEYVHRIGRTGRVGNLGLATSFFNEKNMNITKDLLDLLVEAKQEVPSWLENMAYEHHYKGGSRGRSKSNRFSGGFGARDYRQSSGSSSSGFGASRGSSSRSGGGGYGNSRGFGGGGYGGFYNSDGYGGNYNSQGVDWWGN
[2]
  Interaction with viral protein: CORE
[1]; HCV protein CORE as bait
  IMAP Y2H IMAP2 (number of IST): 3
